Source: patent US20090074722A1, “Products and methods for treating PTP lar diseases” (MAX-PLANCK-GESELLSCHAFT ZUR, priority 1999, published 2009)

T1: tyrosine phosphorylated β-catenin (Homo sapiens, UniProt P35222)
T1 construct: expressed in transfected cells; host or cells: human 293 embryonic kidney cells, transient; CMV-promoter vector; immunoprecipitated with anti-β-catenin antibody
T1 sequence (P35222 1-781): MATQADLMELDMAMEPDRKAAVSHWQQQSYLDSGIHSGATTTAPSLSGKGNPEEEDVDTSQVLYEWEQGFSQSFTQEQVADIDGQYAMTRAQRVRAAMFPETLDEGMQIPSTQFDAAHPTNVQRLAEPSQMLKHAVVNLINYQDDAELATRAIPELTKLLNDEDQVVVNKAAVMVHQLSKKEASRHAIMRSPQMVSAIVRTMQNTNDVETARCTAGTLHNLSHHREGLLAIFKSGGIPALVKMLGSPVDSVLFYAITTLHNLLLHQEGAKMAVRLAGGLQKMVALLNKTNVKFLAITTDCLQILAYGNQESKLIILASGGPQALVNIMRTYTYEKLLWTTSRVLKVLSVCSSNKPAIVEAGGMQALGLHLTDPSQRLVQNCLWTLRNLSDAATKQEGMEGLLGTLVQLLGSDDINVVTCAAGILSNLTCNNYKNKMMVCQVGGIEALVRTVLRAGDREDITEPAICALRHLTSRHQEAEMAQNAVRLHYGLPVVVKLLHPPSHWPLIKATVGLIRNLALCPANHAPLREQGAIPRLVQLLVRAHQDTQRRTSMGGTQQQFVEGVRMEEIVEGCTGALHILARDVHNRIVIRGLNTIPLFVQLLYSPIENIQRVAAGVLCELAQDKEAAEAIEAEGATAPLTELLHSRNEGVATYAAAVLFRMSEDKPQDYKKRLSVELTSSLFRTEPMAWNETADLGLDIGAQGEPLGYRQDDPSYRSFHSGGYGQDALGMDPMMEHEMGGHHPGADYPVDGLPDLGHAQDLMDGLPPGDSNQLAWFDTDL

B1: GST-PTP LAR PTP D2 C1813S: GST fusion of PTP LAR cytoplasmic domain with inactivated PTP domain 2 (protein)
chain: KRKRTHSPSSKDEQSIGLKDSLLAHSSDPVEMRRLNYQTPGMRDHPPIPITDLADNIERLKANDGLKFSQEYESIDPGQQFTWENSNLEVNKPKNRYANVIAYDHSRVILTSIDGVPGSDYINANYIDGYRKQNAYIATQGPLPETMGDFWRMVWEQRTATVVMMTRLEEKSRVKCDQYWPARGTETCGLIQVTLLDTVELATYTVRTFALHKSGSSEKRELRQFQFMAWPDHGVPEYPTPILAFLRRVKACNPLDAGPMVVHCSAGVGRTGCFIVIDAMLERMKHEKTVDIYGHVTCMRSQRNYMVQTEDQYVFIHEALLEAATCGHTEVPARNLYAHIQKLGQVPPGESVTAMELEFKLLASSKAHTSRFISANLPCNKFKNRLVNIMPYELTRVCLQPIRGVEGSDYINASFLDGYRQQKAYIATQGPLAESTEDFWRMLWEHNSTIIVMLTKLREMGREKCHQYWPAERSARYQYFVVDPMAEYNMPQYILREFKVTDARDGQSRTIRQFQFTDWPEQGVPKTGEGFIDFIGQVHKTKEQFGQDGPITVHCSAGVGRTGVFITLSIVLERMRYEGVVDMFQTVKTLRTQRPAMVQTEDQYQLCYRAALEYLGSFDHYAT
B2: GST-PTP LAR PTP D1 C1522S: GST fusion of PTP LAR cytoplasmic domain with catalytically inactivated PTP domain 1 (protein)
chain: B1 chain

Target: T1, tyrosine phosphorylated β-catenin
Test: In vitro dephosphorylation assay
Type: biochemical
Settings: 200 ng GST fusion protein, 25° C.; within the first five minutes; anti-phosphotyrosine Western blot
Experimental: After 24 h of serum starvation, the cells were stimulated with pervanadate before lysis. β-catenin was subsequently immunoprecipitated with an anti-β-catenin antibody, and precipitates were incubated for the indicated time intervals with GST-PTP LAR cytoplasmic fusion protein (left), GST-PTP LAR PTP D1 C1522S-mutant (middle) or GST-PTP LAR PTP D2 C1813S-mutant (right). Reactions were terminated after the indicated periods of time, and proteins were separated by SDS-PAGE. Tyrosine phosphorylation levels of […] were analyzed by Western blotting with an anti-phosphotyrosine antibody (top). […] Arrows indicate the proteins of interest.
In Vitro Dephosphorylation Assay—β-catenin was transiently overexpressed in human 293 embryonic kidney cells. Cells were serum-starved, treated with pervanadate ([…]/0.1 mM Na-orthovanadate) for 10 minutes and lysed. Immunoprecipitations were performed as described above except that HNTG without pyrophosphate, ammonium-molybdate, and Na-orthovanadate was used. PTP activity towards tyrosine phosphorylated β-catenin was assayed in 200 μL reactions at 25° C. containing 25 mM HEPES, pH 7.5, 5 mM EDTA, 10 mM DTT, and 1 mg/mL BSA with 200 ng of GST-hPTP LAR cytoplasmic, GST-hPTP LAR D1 C1522S, or GST-hPTP LAR D2 C1813S added. Reactions were stopped by washing with HNTG and subsequently separated by SDS-PAGE. The tyrosine phosphorylation status was analyzed by Western blotting using anti-phosphotyrosine antibody.
The association of β-catenin and plakoglobin with PTP LAR prompted the investigation of whether these proteins could represent actual substrates for PTP LAR. […] After different time intervals, the reactions were terminated and analyzed with an anti-phosphotyrosine specific antibody.

Row | Molecule | tyrosine phosphorylation signal of β-catenin
1 | B1 | significant reduction in the tyrosine phosphorylation signal
2 | B2 | No change in phosphorylation levels
